As usually defined, the Ki is the equilibrium dissociation constant of an inhibitor or competing ligand from its target. Lower therefore signals higher affinity.

Sequences and labels used below:
B1: cyclic nNOS β-hairpin peptide H106A (peptide)
peptide: cyclo(TALETTFTGDGTPKTIRVTQ[dP]GQ)
SMILES: CC[C@H](C)[C@@H]1NC(=O)[C@H]([C@@H](C)O)NC(=O)[C@H](CCCCN)NC(=O)[C@@H]2CCCN2C(=O)[C@H]([C@@H](C)O)NC(=O)CNC(=O)[C@H](CC(=O)O)NC(=O)CNC(=O)[C@H]([C@@H](C)O)NC(=O)[C@H](Cc2ccccc2)NC(=O)[C@H]([C@@H](C)O)NC(=O)[C@H]([C@@H](C)O)NC(=O)[C@H](CCC(=O)O)NC(=O)[C@H](CC(C)C)NC(=O)[C@H](C)NC(=O)[C@H]([C@@H](C)O)NC(=O)[C@H](CCC(N)=O)NC(=O)CNC(=O)[C@H]2CCCN2C(=O)[C@H](CCC(N)=O)NC(=O)[C@H]([C@@H](C)O)NC(=O)[C@H](C(C)C)NC(=O)[C@H](CCCNC(=N)N)NC1=O
B2: cyclic nNOS β-hairpin peptide P117A (peptide)
peptide: cyclo(THLETTFTGDGTAKTIRVTQ[dP]GQ)
SMILES: CC[C@H](C)[C@@H]1NC(=O)[C@H]([C@@H](C)O)NC(=O)[C@H](CCCCN)NC(=O)[C@H](C)NC(=O)[C@H]([C@@H](C)O)NC(=O)CNC(=O)[C@H](CC(=O)O)NC(=O)CNC(=O)[C@H]([C@@H](C)O)NC(=O)[C@H](Cc2ccccc2)NC(=O)[C@H]([C@@H](C)O)NC(=O)[C@H]([C@@H](C)O)NC(=O)[C@H](CCC(=O)O)NC(=O)[C@H](CC(C)C)NC(=O)[C@H](Cc2c[nH]cn2)NC(=O)[C@H]([C@@H](C)O)NC(=O)[C@H](CCC(N)=O)NC(=O)CNC(=O)[C@H]2CCCN2C(=O)[C@H](CCC(N)=O)NC(=O)[C@H]([C@@H](C)O)NC(=O)[C@H](C(C)C)NC(=O)[C@H](CCCNC(=N)N)NC1=O
B3: cyclic nNOS β-hairpin peptide T112A (peptide)
peptide: cyclo(THLETTFAGDGTPKTIRVTQ[dP]GQ)
SMILES: CC[C@H](C)[C@@H]1NC(=O)[C@H]([C@@H](C)O)NC(=O)[C@H](CCCCN)NC(=O)[C@@H]2CCCN2C(=O)[C@H]([C@@H](C)O)NC(=O)CNC(=O)[C@H](CC(=O)O)NC(=O)CNC(=O)[C@H](C)NC(=O)[C@H](Cc2ccccc2)NC(=O)[C@H]([C@@H](C)O)NC(=O)[C@H]([C@@H](C)O)NC(=O)[C@H](CCC(=O)O)NC(=O)[C@H](CC(C)C)NC(=O)[C@H](Cc2c[nH]cn2)NC(=O)[C@H]([C@@H](C)O)NC(=O)[C@H](CCC(N)=O)NC(=O)CNC(=O)[C@H]2CCCN2C(=O)[C@H](CCC(N)=O)NC(=O)[C@H]([C@@H](C)O)NC(=O)[C@H](C(C)C)NC(=O)[C@H](CCCNC(=N)N)NC1=O
B4: cyclic nNOS β-hairpin peptide T116A (peptide)
peptide: cyclo(THLETTFTGDGAPKTIRVTQ[dP]GQ)
SMILES: CC[C@H](C)[C@@H]1NC(=O)[C@H]([C@@H](C)O)NC(=O)[C@H](CCCCN)NC(=O)[C@@H]2CCCN2C(=O)[C@H](C)NC(=O)CNC(=O)[C@H](CC(=O)O)NC(=O)CNC(=O)[C@H]([C@@H](C)O)NC(=O)[C@H](Cc2ccccc2)NC(=O)[C@H]([C@@H](C)O)NC(=O)[C@H]([C@@H](C)O)NC(=O)[C@H](CCC(=O)O)NC(=O)[C@H](CC(C)C)NC(=O)[C@H](Cc2c[nH]cn2)NC(=O)[C@H]([C@@H](C)O)NC(=O)[C@H](CCC(N)=O)NC(=O)CNC(=O)[C@H]2CCCN2C(=O)[C@H](CCC(N)=O)NC(=O)[C@H]([C@@H](C)O)NC(=O)[C@H](C(C)C)NC(=O)[C@H](CCCNC(=N)N)NC1=O
B5: cyclic nNOS β-hairpin peptide L107A (peptide)
peptide: cyclo(THAETTFTGDGTPKTIRVTQ[dP]GQ)
SMILES: CC[C@H](C)[C@@H]1NC(=O)[C@H]([C@@H](C)O)NC(=O)[C@H](CCCCN)NC(=O)[C@@H]2CCCN2C(=O)[C@H]([C@@H](C)O)NC(=O)CNC(=O)[C@H](CC(=O)O)NC(=O)CNC(=O)[C@H]([C@@H](C)O)NC(=O)[C@H](Cc2ccccc2)NC(=O)[C@H]([C@@H](C)O)NC(=O)[C@H]([C@@H](C)O)NC(=O)[C@H](CCC(=O)O)NC(=O)[C@H](C)NC(=O)[C@H](Cc2c[nH]cn2)NC(=O)[C@H]([C@@H](C)O)NC(=O)[C@H](CCC(N)=O)NC(=O)CNC(=O)[C@H]2CCCN2C(=O)[C@H](CCC(N)=O)NC(=O)[C@H]([C@@H](C)O)NC(=O)[C@H](C(C)C)NC(=O)[C@H](CCCNC(=N)N)NC1=O
B6: cyclic nNOS β-hairpin peptide I120A (peptide)
peptide: cyclo(THLETTFTGDGTPKTARVTQ[dP]GQ)
SMILES: CC(C)C[C@@H]1NC(=O)[C@H](Cc2c[nH]cn2)NC(=O)[C@H]([C@@H](C)O)NC(=O)[C@H](CCC(N)=O)NC(=O)CNC(=O)[C@H]2CCCN2C(=O)[C@H](CCC(N)=O)NC(=O)[C@H]([C@@H](C)O)NC(=O)[C@H](C(C)C)NC(=O)[C@H](CCCNC(=N)N)NC(=O)[C@H](C)NC(=O)[C@H]([C@@H](C)O)NC(=O)[C@H](CCCCN)NC(=O)[C@@H]2CCCN2C(=O)[C@H]([C@@H](C)O)NC(=O)CNC(=O)[C@H](CC(=O)O)NC(=O)CNC(=O)[C@H]([C@@H](C)O)NC(=O)[C@H](Cc2ccccc2)NC(=O)[C@H]([C@@H](C)O)NC(=O)[C@H]([C@@H](C)O)NC(=O)[C@H](CCC(=O)O)NC1=O
B7: cyclic nNOS β-hairpin peptide R121A (peptide)
peptide: cyclo(THLETTFTGDGTPKTIAVTQ[dP]GQ)
SMILES: CC[C@H](C)[C@@H]1NC(=O)[C@H]([C@@H](C)O)NC(=O)[C@H](CCCCN)NC(=O)[C@@H]2CCCN2C(=O)[C@H]([C@@H](C)O)NC(=O)CNC(=O)[C@H](CC(=O)O)NC(=O)CNC(=O)[C@H]([C@@H](C)O)NC(=O)[C@H](Cc2ccccc2)NC(=O)[C@H]([C@@H](C)O)NC(=O)[C@H]([C@@H](C)O)NC(=O)[C@H](CCC(=O)O)NC(=O)[C@H](CC(C)C)NC(=O)[C@H](Cc2c[nH]cn2)NC(=O)[C@H]([C@@H](C)O)NC(=O)[C@H](CCC(N)=O)NC(=O)CNC(=O)[C@H]2CCCN2C(=O)[C@H](CCC(N)=O)NC(=O)[C@H]([C@@H](C)O)NC(=O)[C@H](C(C)C)NC(=O)[C@H](C)NC1=O
B8: cyclic nNOS β-hairpin peptide T105A (peptide)
peptide: cyclo(AHLETTFTGDGTPKTIRVTQ[dP]GQ)
SMILES: CC[C@H](C)[C@@H]1NC(=O)[C@H]([C@@H](C)O)NC(=O)[C@H](CCCCN)NC(=O)[C@@H]2CCCN2C(=O)[C@H]([C@@H](C)O)NC(=O)CNC(=O)[C@H](CC(=O)O)NC(=O)CNC(=O)[C@H]([C@@H](C)O)NC(=O)[C@H](Cc2ccccc2)NC(=O)[C@H]([C@@H](C)O)NC(=O)[C@H]([C@@H](C)O)NC(=O)[C@H](CCC(=O)O)NC(=O)[C@H](CC(C)C)NC(=O)[C@H](Cc2c[nH]cn2)NC(=O)[C@H](C)NC(=O)[C@H](CCC(N)=O)NC(=O)CNC(=O)[C@H]2CCCN2C(=O)[C@H](CCC(N)=O)NC(=O)[C@H]([C@@H](C)O)NC(=O)[C@H](C(C)C)NC(=O)[C@H](CCCNC(=N)N)NC1=O
B9: cyclic nNOS β-hairpin peptide K118A (peptide)
peptide: cyclo(THLETTFTGDGTPATIRVTQ[dP]GQ)
SMILES: CC[C@H](C)[C@@H]1NC(=O)[C@H]([C@@H](C)O)NC(=O)[C@H](C)NC(=O)[C@@H]2CCCN2C(=O)[C@H]([C@@H](C)O)NC(=O)CNC(=O)[C@H](CC(=O)O)NC(=O)CNC(=O)[C@H]([C@@H](C)O)NC(=O)[C@H](Cc2ccccc2)NC(=O)[C@H]([C@@H](C)O)NC(=O)[C@H]([C@@H](C)O)NC(=O)[C@H](CCC(=O)O)NC(=O)[C@H](CC(C)C)NC(=O)[C@H](Cc2c[nH]cn2)NC(=O)[C@H]([C@@H](C)O)NC(=O)[C@H](CCC(N)=O)NC(=O)CNC(=O)[C@H]2CCCN2C(=O)[C@H](CCC(N)=O)NC(=O)[C@H]([C@@H](C)O)NC(=O)[C@H](C(C)C)NC(=O)[C@H](CCCNC(=N)N)NC1=O
B10: cyclic nNOS β-hairpin peptide T110A (peptide)
peptide: cyclo(THLETAFTGDGTPKTIRVTQ[dP]GQ)
SMILES: CC[C@H](C)[C@@H]1NC(=O)[C@H]([C@@H](C)O)NC(=O)[C@H](CCCCN)NC(=O)[C@@H]2CCCN2C(=O)[C@H]([C@@H](C)O)NC(=O)CNC(=O)[C@H](CC(=O)O)NC(=O)CNC(=O)[C@H]([C@@H](C)O)NC(=O)[C@H](Cc2ccccc2)NC(=O)[C@H](C)NC(=O)[C@H]([C@@H](C)O)NC(=O)[C@H](CCC(=O)O)NC(=O)[C@H](CC(C)C)NC(=O)[C@H](Cc2c[nH]cn2)NC(=O)[C@H]([C@@H](C)O)NC(=O)[C@H](CCC(N)=O)NC(=O)CNC(=O)[C@H]2CCCN2C(=O)[C@H](CCC(N)=O)NC(=O)[C@H]([C@@H](C)O)NC(=O)[C@H](C(C)C)NC(=O)[C@H](CCCNC(=N)N)NC1=O
B11: cyclic nNOS β-hairpin peptide Q124A (peptide)
peptide: cyclo(THLETTFTGDGTPKTIRVTA[dP]GQ)
SMILES: CC[C@H](C)[C@@H]1NC(=O)[C@H]([C@@H](C)O)NC(=O)[C@H](CCCCN)NC(=O)[C@@H]2CCCN2C(=O)[C@H]([C@@H](C)O)NC(=O)CNC(=O)[C@H](CC(=O)O)NC(=O)CNC(=O)[C@H]([C@@H](C)O)NC(=O)[C@H](Cc2ccccc2)NC(=O)[C@H]([C@@H](C)O)NC(=O)[C@H]([C@@H](C)O)NC(=O)[C@H](CCC(=O)O)NC(=O)[C@H](CC(C)C)NC(=O)[C@H](Cc2c[nH]cn2)NC(=O)[C@H]([C@@H](C)O)NC(=O)[C@H](CCC(N)=O)NC(=O)CNC(=O)[C@H]2CCCN2C(=O)[C@H](C)NC(=O)[C@H]([C@@H](C)O)NC(=O)[C@H](C(C)C)NC(=O)[C@H](CCCNC(=N)N)NC1=O

[ ]: non-standard residue; d: D form.

The experiment deals with T1, (7× His)-PSD-95-PDZ2 wild type (UniProt P78352 160-246).
T1 construct: domain: PDZ2; recombinant from E. coli; also called PSD-95-PDZ2 WT; not shown: 7x His tag
T1 sequence (P78352 160-246): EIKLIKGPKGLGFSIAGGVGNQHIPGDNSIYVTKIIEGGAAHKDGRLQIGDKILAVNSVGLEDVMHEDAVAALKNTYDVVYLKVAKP
The experiment can be described thus: FP competition.
In the case of B1, affinity was put at a Ki of 2060 nM and the “Relative Ki (Ki mut/Ki WT)” value stood at 1.37.
On the same counts, the results for B2 are 1610 nM and 1.07.
On the same counts, the results for B3 are 1770 nM and 1.18.
On the same counts, the results for B4 are 1240 nM and 0.83.
B5: the inhibitory constant (Ki) is 3540 nM and the “Relative Ki (Ki mut/Ki WT)” value turned out to be 2.36.
On the same counts, the results for B6 are 1760 nM and 1.17.
Consider B7, for which the Ki turned out to be 2470 nM and the “Relative Ki (Ki mut/Ki WT)” value was 1.65.
With B8, the inhibition constant Ki came to 1500 nM and the “Relative Ki (Ki mut/Ki WT)” value was determined as 1.
On the same counts, the results for B9 are 1430 nM and 0.95.
On the same counts, the results for B10 are 3930 nM and 2.62.
On to B11, for which the Ki worked out at 1510 nM and the “Relative Ki (Ki mut/Ki WT)” value came to 1.01.

For the origin of these results see patent publication US20230220021A1 (UNIVERSITY OF COPENHAGEN, published 2023).
